T1: Mcm2 (budding yeast, UniProt P29469 1-868)
T1 construct: Mcm2, subunit of the budding yeast MCM (Mcm2-7), expressed as an individual subunit; source: E. coli, purified
T1 sequence (looked up): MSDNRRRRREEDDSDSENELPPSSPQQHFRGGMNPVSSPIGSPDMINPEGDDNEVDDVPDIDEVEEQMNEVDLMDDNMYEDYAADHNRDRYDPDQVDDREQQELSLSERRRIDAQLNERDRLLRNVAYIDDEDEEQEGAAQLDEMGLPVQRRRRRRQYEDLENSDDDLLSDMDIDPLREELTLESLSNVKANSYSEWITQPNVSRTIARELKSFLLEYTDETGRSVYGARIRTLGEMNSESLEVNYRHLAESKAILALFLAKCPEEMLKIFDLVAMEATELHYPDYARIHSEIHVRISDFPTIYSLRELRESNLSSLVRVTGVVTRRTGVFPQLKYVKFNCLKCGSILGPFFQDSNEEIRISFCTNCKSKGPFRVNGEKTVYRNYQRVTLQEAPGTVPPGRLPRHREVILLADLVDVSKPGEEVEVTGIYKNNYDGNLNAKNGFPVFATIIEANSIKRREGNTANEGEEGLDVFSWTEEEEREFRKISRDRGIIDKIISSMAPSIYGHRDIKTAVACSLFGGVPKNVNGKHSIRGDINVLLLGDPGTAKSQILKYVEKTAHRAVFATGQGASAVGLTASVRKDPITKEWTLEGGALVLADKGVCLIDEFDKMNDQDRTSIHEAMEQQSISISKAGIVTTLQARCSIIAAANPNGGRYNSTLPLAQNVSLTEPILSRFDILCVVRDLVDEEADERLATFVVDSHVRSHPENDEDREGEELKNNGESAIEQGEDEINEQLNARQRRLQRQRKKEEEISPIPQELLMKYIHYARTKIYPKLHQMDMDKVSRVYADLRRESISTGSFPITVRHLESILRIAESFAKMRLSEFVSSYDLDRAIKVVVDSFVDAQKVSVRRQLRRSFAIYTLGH

T2: Mcm4 (budding yeast, UniProt P30665 1-933)
T2 construct: Mcm4, subunit of the budding yeast MCM (Mcm2-7), expressed as an individual subunit; source: E. coli, purified
T2 sequence (looked up): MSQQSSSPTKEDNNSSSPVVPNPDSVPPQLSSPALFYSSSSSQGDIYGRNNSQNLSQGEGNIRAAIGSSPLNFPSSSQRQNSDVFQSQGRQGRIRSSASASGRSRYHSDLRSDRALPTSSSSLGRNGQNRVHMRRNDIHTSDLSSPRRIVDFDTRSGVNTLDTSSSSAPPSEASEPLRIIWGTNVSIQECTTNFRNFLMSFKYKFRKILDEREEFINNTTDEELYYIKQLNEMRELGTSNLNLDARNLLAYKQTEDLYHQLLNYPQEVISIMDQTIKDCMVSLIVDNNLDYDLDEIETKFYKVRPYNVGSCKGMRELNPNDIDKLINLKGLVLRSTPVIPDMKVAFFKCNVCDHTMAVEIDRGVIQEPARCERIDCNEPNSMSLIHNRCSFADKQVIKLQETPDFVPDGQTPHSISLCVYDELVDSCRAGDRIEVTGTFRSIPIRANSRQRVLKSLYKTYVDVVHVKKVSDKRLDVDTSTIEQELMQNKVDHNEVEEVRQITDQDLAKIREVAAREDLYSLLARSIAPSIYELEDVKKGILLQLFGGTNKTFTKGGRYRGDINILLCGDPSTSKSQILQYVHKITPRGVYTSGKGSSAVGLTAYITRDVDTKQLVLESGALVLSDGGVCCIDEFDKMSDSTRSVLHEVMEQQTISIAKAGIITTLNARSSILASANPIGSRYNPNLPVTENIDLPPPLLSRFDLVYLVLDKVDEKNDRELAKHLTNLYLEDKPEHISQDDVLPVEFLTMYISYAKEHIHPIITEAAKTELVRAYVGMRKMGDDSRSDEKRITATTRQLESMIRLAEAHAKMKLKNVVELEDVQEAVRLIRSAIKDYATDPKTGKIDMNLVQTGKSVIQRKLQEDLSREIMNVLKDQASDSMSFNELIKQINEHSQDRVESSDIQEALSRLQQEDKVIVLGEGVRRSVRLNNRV


Legend:
Conditions in all cases: both partners purified
[1] = biological target: T1, Mcm2; experiment: pull-down; Cdt1-His-SUMO fragments held on Ni-NTA magnetic beads, Mcm2 or Mcm6 in solution; 10 μg of each protein, buffer B (25 mM Hepes-KOH pH 7.6, 0.02% NP-40, 10% glycerol, 0.1 M K glutamate), 60 min at 4 °C; Coomassie
[2] = biological target: T3, Mcm6 (budding yeast, UniProt P53091 1-1017); experiment: as above
T3 construct: Mcm6, subunit of the budding yeast MCM (Mcm2-7), expressed as an individual subunit; called Mcm6 fl and the full-length protein; also called Mcm6 fl; full-length Mcm6; source: E. coli, purified
T3 sequence (P53091 whole entry): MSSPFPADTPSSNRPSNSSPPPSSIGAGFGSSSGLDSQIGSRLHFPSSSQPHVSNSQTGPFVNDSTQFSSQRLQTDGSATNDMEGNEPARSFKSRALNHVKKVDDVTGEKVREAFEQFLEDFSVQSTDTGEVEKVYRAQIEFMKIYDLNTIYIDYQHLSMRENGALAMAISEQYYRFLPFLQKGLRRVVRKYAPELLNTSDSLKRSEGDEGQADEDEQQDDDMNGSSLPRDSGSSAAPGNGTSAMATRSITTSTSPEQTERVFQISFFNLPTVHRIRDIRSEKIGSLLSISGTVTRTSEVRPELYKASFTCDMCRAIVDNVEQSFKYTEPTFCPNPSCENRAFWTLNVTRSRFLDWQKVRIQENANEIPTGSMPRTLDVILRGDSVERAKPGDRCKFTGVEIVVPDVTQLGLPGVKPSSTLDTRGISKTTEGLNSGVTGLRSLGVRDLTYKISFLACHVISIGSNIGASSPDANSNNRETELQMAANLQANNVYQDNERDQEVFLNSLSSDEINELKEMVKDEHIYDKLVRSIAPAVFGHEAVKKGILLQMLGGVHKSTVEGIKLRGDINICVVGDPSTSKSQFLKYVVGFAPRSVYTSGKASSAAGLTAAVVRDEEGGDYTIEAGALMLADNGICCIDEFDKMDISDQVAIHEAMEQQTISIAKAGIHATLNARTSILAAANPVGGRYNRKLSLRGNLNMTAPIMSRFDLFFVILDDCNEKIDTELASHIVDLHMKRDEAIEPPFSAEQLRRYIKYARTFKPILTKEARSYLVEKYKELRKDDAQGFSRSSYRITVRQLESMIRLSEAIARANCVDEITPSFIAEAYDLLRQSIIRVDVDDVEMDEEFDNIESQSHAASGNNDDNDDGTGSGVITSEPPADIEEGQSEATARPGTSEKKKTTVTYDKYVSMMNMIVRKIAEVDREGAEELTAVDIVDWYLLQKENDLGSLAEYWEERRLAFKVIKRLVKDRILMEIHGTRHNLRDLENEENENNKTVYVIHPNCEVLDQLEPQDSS

[3] = biological target: T3, Mcm6; experiment: co-IP; purified Mcm2-7 subunits (0.5 μM) individually incubated with purified Cdt1 (0.5 μM) or buffer, room temperature 60 min, buffer A/2 mM 2-mercaptoethanol; immunoprecipitation with polyclonal anti-Cdt1 antibody on protein A sepharose, 2 h at 4 °C; SDS-PAGE, Coomassie
[4] = biological target: T4, Mcm6 tagged with GFP-FLAG, within an MCM-GFP,FLAG–Cdt1 complex (budding yeast, UniProt P53091 1-1017); experiment: cross-linking; MCM-GFP,FLAG-Cdt1 complexes (20 μg) crosslinked with 25 μM BS3, 30 min room temperature, buffer B; denatured with SDS; immunoprecipitation with anti-FLAG beads under denaturing conditions; western blot against Cdt1
T4 construct: Mcm6, budding yeast MCM subunit; also called Mcm6-GFP-FLAG; source: purified MCM-GFP,FLAG-Cdt1 complex; not shown: GFP, C-terminal, kept; FLAG, C-terminal, kept
T4 sequence (P53091 whole entry, one chain of several): as the sequence (P53091 whole entry) above

[5] = biological target: T5, Mcm6 within purified Cdt1–MCM complexes (budding yeast, UniProt P53091 1-1017); experiment: negative-stain electron microscopy; single-particle EM of the Cdt1-MCM complex, apo and with ATPγS, 2% uranyl formate; 3D reconstruction (20.4 and 18.0 Å) with docking of MCM atomic structures and of the Cdt1 NM crystal structure
T5 construct: Mcm6, yeast MCM subunit, as part of the Cdt1-MCM complex; source: purified Cdt1-MCM complex
T5 sequence (P53091 whole entry, one chain of several): as the sequence (P53091 whole entry) above

[6] = biological target: T6, Mcm3 (budding yeast, UniProt P24279 1-971); experiment: SEC; 10 μg of each Mcm subunit combined as pairs 3/7, 4/7 and 2/6, dialysed against buffer A, fractionated over Superdex 200 PC 3.2/30 in buffer A; fractions with the dimers pooled
T6 construct: Mcm3, subunit of the budding yeast MCM (Mcm2-7), expressed as an individual subunit; source: E. coli, purified
T6 sequence (P24279 whole entry): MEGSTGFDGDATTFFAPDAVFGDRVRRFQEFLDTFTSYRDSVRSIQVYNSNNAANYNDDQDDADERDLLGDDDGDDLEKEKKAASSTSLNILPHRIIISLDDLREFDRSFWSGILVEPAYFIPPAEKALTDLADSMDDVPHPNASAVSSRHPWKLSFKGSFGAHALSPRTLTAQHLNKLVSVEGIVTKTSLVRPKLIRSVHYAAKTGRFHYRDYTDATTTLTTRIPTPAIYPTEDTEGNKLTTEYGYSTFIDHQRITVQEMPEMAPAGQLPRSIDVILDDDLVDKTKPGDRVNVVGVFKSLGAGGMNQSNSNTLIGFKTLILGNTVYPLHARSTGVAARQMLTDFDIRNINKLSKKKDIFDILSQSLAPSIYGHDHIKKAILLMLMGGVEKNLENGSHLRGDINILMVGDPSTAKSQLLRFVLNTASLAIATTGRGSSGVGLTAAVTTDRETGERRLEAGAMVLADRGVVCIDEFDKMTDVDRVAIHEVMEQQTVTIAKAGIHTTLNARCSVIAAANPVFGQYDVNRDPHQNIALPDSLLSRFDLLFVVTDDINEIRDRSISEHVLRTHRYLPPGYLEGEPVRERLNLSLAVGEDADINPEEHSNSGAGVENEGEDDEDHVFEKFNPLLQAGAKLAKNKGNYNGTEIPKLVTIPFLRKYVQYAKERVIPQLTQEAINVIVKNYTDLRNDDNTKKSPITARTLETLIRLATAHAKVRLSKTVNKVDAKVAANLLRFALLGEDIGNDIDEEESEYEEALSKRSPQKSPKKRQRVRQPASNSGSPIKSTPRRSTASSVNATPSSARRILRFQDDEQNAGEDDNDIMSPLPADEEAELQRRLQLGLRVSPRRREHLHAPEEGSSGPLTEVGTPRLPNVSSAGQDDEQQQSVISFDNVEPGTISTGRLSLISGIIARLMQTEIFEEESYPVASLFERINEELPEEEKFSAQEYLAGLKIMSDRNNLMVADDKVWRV

[7] = biological target: T2, Mcm4; experiment: as above

Row | Binder | binding result [1] | binding result [2] | further results
1 | Cdt1-MC fused to His-SUMO (domain or fragment, S. cerevisiae, UniProt P47112 272-604, looked up, source: His-SUMO fusion) SKGEGTIANHLLEQQIKAFPKVAQQYYPRELSILRLQDAMKFVKELFTVCETVLSLNALSRSTGVPPELHVLLPQISSMMKRKIVQDDILKLLTIWSDAYVVELNSRGELTMNLPKRDNLTTLTNKSRTLAFVERAESWYQQVIASKDEIMTDVPAFKINKRRSSSNSKTVLSSKVQTKSSNANALNNSRYLANSKENFMYKEKMPDSQANLMDRLRERERRSAALLSQRQKRYQQFLAMKMTQVFDILFSLTRGQPYTETYLSSLIVDSLQDSNNPIGTKEASEILAGLQGILPMDISVHQVDGGLKVYRWNSLDKNRFSKLLQIHKSKQQD | binds | binds | –
2 | Cdt1 (natural protein, S. cerevisiae, UniProt P47112 1-604, looked up, Cdt1, S. cerevisiae; also called Cdt1 WT; wild-type Cdt1; source: recombinant, purified) MSGTANSRRKEVLRVPVIDLNRVSDEEQLLPVVRAILLQHDTFLLKNYANKAVLDALLAGLTTKDLPDTSQGFDANFTGTLPLEDDVWLEQYIFDTDPQLRFDRKCRNESLCSIYSRLFKLGLFFAQLCVKSVVSSAELQDCISTSHYATKLTRYFNDNGSTHDGADAGATVLPTGDDFQYLFERDYVTFLPTGVLTIFPCAKAIRYKPSTMATTDNSWVSIDEPDCLLFHTGTLLARWSQGMHTTSPLQIDPRANIVSLTIWPPLTTPISSKGEGTIANHLLEQQIKAFPKVAQQYYPRELSILRLQDAMKFVKELFTVCETVLSLNALSRSTGVPPELHVLLPQISSMMKRKIVQDDILKLLTIWSDAYVVELNSRGELTMNLPKRDNLTTLTNKSRTLAFVERAESWYQQVIASKDEIMTDVPAFKINKRRSSSNSKTVLSSKVQTKSSNANALNNSRYLANSKENFMYKEKMPDSQANLMDRLRERERRSAALLSQRQKRYQQFLAMKMTQVFDILFSLTRGQPYTETYLSSLIVDSLQDSNNPIGTKEASEILAGLQGILPMDISVHQVDGGLKVYRWNSLDKNRFSKLLQIHKSKQQD | – | – | binding result [3]: binds
3 | Cdt1 within purified Cdt1–MCM complexes (natural protein, S. cerevisiae, UniProt P47112 1-604, looked up, also called Cdt1 (in MCM-GFP,FLAG–Cdt1 complexes and in the Cdt1–MCM complex used for electron microscopy); source: purified Cdt1-MCM complex) MSGTANSRRKEVLRVPVIDLNRVSDEEQLLPVVRAILLQHDTFLLKNYANKAVLDALLAGLTTKDLPDTSQGFDANFTGTLPLEDDVWLEQYIFDTDPQLRFDRKCRNESLCSIYSRLFKLGLFFAQLCVKSVVSSAELQDCISTSHYATKLTRYFNDNGSTHDGADAGATVLPTGDDFQYLFERDYVTFLPTGVLTIFPCAKAIRYKPSTMATTDNSWVSIDEPDCLLFHTGTLLARWSQGMHTTSPLQIDPRANIVSLTIWPPLTTPISSKGEGTIANHLLEQQIKAFPKVAQQYYPRELSILRLQDAMKFVKELFTVCETVLSLNALSRSTGVPPELHVLLPQISSMMKRKIVQDDILKLLTIWSDAYVVELNSRGELTMNLPKRDNLTTLTNKSRTLAFVERAESWYQQVIASKDEIMTDVPAFKINKRRSSSNSKTVLSSKVQTKSSNANALNNSRYLANSKENFMYKEKMPDSQANLMDRLRERERRSAALLSQRQKRYQQFLAMKMTQVFDILFSLTRGQPYTETYLSSLIVDSLQDSNNPIGTKEASEILAGLQGILPMDISVHQVDGGLKVYRWNSLDKNRFSKLLQIHKSKQQD | – | – | binding result [4]: binds; binding result [5]: binds
4 | Mcm7 (natural protein, budding yeast, UniProt P38132 1-845, looked up, Mcm7, subunit of the budding yeast MCM (Mcm2-7), expressed as an individual subunit; source: E. coli, purified) MSAALPSIQLPVDYNNLFNEITDFLVTFKQDTLSSDATRNENEDENLDAENIEQHLLEKGPKYMAMLQKVANRELNSVIIDLDDILQYQNEKFLQGTQADDLVSAIQQNANHFTELFCRAIDNNMPLPTKEIDYKDDVLDVILNQRRLRNERMLSDRTNEIRSENLMDTTMDPPSSMNDALREVVEDETELFPPNLTRRYFLYFKPLSQNCARRYRKKAISSKPLSVRQIKGDFLGQLITVRGIITRVSDVKPAVEVIAYTCDQCGYEVFQEVNSRTFTPLSECTSEECSQNQTKGQLFMSTRASKFSAFQECKIQELSQQVPVGHIPRSLNIHVNGTLVRSLSPGDIVDVTGIFLPAPYTGFKALKAGLLTETYLEAQFVRQHKKKFASFSLTSDVEERVMELITSGDVYNRLAKSIAPEIYGNLDVKKALLLLLVGGVDKRVGDGMKIRGDINVCLMGDPGVAKSQLLKAICKISPRGVYTTGKGSSGVGLTAAVMKDPVTDEMILEGGALVLADNGICCIDEFDKMDESDRTAIHEVMEQQTISISKAGINTTLNARTSILAAANPLYGRYNPRLSPLDNINLPAALLSRFDILFLMLDIPSRDDDEKLAEHVTYVHMHNKQPDLDFTPVEPSKMREYIAYAKTKRPVMSEAVNDYVVQAYIRLRQDSKREMDSKFSFGQATPRTLLGIIRLSQALAKLRLADMVDIDDVEEALRLVRVSKESLYQETNKSKEDESPTTKIFTIIKKMLQETGKNTLSYENIVKTVRLRGFTMLQLSNCIQEYSYLNVWHLINEGNTLKFVDDGTMDTDQEDSLVSTPKLAPQTTASANVSAQDSDIDLQDA | – | – | binding result [6]: binds; binding result [7]: binds

Second part, led by results:

Row | binding result [1] | binding result [2] | Binder | further results
5 | binds | binds | Cdt1 fragment 271–496 fused to His-SUMO (domain or fragment, S. cerevisiae, UniProt P47112 271-496, looked up, source: His-SUMO fusion) SSKGEGTIANHLLEQQIKAFPKVAQQYYPRELSILRLQDAMKFVKELFTVCETVLSLNALSRSTGVPPELHVLLPQISSMMKRKIVQDDILKLLTIWSDAYVVELNSRGELTMNLPKRDNLTTLTNKSRTLAFVERAESWYQQVIASKDEIMTDVPAFKINKRRSSSNSKTVLSSKVQTKSSNANALNNSRYLANSKENFMYKEKMPDSQANLMDRLRERERRSAA | –
6 | binds | binds | Cdt1 fragment 495–604 fused to His-SUMO (domain or fragment, S. cerevisiae, UniProt P47112 495-604, looked up, assigned by the order of description; The crystallised protein had the tag removed; also called CTD; source: His-SUMO fusion; E. coli is told for the crystallised fragment of the same limits) AALLSQRQKRYQQFLAMKMTQVFDILFSLTRGQPYTETYLSSLIVDSLQDSNNPIGTKEASEILAGLQGILPMDISVHQVDGGLKVYRWNSLDKNRFSKLLQIHKSKQQD | –

Source: article PMC5490006 (Nature Communications, 2017)
